Assay results reported in patent US20230055566A1.

Legend:
[1] = biological target: recombinant human FGFR1b-Fc (human) (UniProt P11362); assay: SPR (Biacore), hFGFR1b-Fc immobilized on CM5 chip, antibody injected at 0-200 nM
[2] = biological target: recombinant human FGFR1b-Fc (human) (UniProt P11362); assay: SPR (Biacore T200), hFGFR1b-Fc amine-coupled on CM5 chip, antibody as analyte
[3] = biological target: human FGFR2b (beta)-Fc (human) (UniProt P21802); assay: SPR (Biacore), hFGFR2b-Fc immobilized on CM5 chip, antibody injected at 0-200 nM
[4] = biological target: endogenous FGFR2b on the cell membrane of human gastric cancer cells (KATOIII, SNU16) (human) (UniProt P21802); assay: flow cytometry on FGFR2b expressing KATOIII cells
[5] = biological target: recombinant human FGFR2b-Fc (murine Fc) (human) (UniProt P21802); assay: ELISA, plate coated with human FGFR2b-Fc, anti-human IgG HRP
[6] = biological target: human FGFR2b on engineered Ba/F3 cells (Ba/F3-FGFR2b) (human), P21802; assay: cell-based or functional assay
human FGFR2b on engineered Ba/F3 cells (Ba/F3-FGFR2b) (human), P21802, sequence (P21802 22-821, change not shown): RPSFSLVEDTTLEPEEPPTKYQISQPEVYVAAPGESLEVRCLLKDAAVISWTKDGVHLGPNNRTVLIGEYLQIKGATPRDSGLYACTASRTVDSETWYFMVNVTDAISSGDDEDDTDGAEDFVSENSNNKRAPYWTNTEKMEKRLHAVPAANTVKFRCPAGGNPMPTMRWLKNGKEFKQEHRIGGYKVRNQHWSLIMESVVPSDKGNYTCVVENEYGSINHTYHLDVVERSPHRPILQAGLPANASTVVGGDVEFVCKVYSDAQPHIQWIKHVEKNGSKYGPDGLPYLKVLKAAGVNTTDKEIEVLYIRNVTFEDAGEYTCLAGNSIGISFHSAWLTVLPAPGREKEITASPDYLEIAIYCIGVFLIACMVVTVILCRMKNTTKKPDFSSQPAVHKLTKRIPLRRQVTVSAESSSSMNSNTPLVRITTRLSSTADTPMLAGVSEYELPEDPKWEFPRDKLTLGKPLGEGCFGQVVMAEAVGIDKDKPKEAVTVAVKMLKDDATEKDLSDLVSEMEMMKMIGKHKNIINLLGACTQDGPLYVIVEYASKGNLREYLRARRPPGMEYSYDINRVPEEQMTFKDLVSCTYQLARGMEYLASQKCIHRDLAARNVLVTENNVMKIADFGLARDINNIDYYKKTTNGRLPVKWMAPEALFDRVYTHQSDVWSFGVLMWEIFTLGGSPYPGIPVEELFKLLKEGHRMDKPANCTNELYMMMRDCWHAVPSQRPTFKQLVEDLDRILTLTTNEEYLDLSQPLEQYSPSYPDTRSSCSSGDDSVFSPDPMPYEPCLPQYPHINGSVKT

[7] = biological target: human FGFR2b (beta)-Fc (human) (UniProt P21802); assay: ELISA, plate coated with HuFGFR2b

recombinant human FGFR1b-Fc (human), sequence (P11362 other isoform, or with tags, fused parts or gaps): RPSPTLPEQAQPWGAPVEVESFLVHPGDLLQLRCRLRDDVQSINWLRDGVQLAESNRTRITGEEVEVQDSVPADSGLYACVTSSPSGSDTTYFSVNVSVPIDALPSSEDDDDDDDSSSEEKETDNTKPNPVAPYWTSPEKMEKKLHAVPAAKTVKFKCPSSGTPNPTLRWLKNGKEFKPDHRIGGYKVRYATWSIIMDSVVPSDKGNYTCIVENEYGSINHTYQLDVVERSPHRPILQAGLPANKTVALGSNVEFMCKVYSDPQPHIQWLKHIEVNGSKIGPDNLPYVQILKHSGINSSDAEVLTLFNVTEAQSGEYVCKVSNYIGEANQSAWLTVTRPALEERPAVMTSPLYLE

Row | Binder | Kd [3] | koff [3] | kon [3] | other results
1 | FPA144 (antibody, INN chains, looked up, V domains shown) VH: QVQLVQSGAEVKKPGSSVKVSCKASGYIFTTYNVHWVRQAPGQGLEWIGSIYPDNGDTSYNQNFKGRATITADKSTSTAYMELSSLRSEDTAVYYCARGDFAYWGQGTLVTVSS VL: DIQMTQSPSSLSASVGDRVTITCKASQGVSNDVAWYQQKPGKAPKLLIYSASYRYTGVPSRFSGSGSGTDFTFTISSLQPEDIATYYCQQHSTTPYTFGQGTKLEIK |  |  |  | koff [1]: 0.00746 s⁻¹; kon [1]: 33200 M⁻¹ s⁻¹; Kd [2]: 225000 pM
2 | Ab 21c (antibody, V domains shown) VH: EVQLHQSGTVLARPGASVKMSCKTSGYTFTNYWMHWIKQRPGQGLEWIGAIYPENGDINYNQKFKGKAKLTAVTSASTAYMDLSSLTNEDSAVYYCTSRGDYWGQGTTLTVSS VL: QIVLTQSPAIMSASPGEKVTMTCSASSGLSYMSWYQQKPGSSPRLLIYDTSNLASGVPVRFSGSGSGTSYSLTISRMEAEDAATYYCQQWSSYPYTFGGGTKLEIK | 269 pM | 2.46e-05 s⁻¹ | 91300 M⁻¹ s⁻¹ | EC50 [4]: 8000 pM; EC50 (read off the curve) [5]: 400 pM; GI50, inhibition of FGF7-induced BaF3 cell proliferation (MTS, 72 hours) [6]: 10000 pM
3 | Ab 21 (antibody, V domains shown) VH: EVQLHQSGTVLARPGASVKMSCKTSGYTFTNYWMHWIKQRPGQGLEWIGAIYPENGDINYNQKFKGKAKLTAVTSASTAYMDLSSLTNEDSAVYYCTSRGDYWGQGTTLTVSS VL: QIVLTQSPAIMSASPGEKVTMTCSASSGLSYMSWYQQKPGSSPRLLIYDTSNLASGVPVRFSGSGSGTSYSLTISRMEAEDAATYYCQQWSSYPYTFGGGTKLEIK |  |  |  | EC50 (read off the curve) [7]: 400 pM

Second part, led by results:

Row | Kd [3] | koff [3] | kon [3] | Binder | other results
4 | 482 pM | 5.58e-05 s⁻¹ | 116000 M⁻¹ s⁻¹ | Ab hu21-26 (antibody, human IgG1, V domains shown) VH: EVQLVQSGAEVKKPGASVKVSCKASGYTFTNYWMHWVRQAPGQGLEWMGAIYPENRDINYNQKFKGRVTLTRDTSISTAYMELSRLRSDDTAVYYCTSRGDYWGQGTTVTVSS VL: AIQLTQSPSSLSASVGDRVTITCSASSGLSYMSWYQQKPGKAPKLLIYDTSNLASGVPSRFSGSGSGTDFTLTISSLQPEDFATYYCQQWSSYPYTFGQGTKLEIK | 
5 | 250 pM | 2.45e-05 s⁻¹ | 98000 M⁻¹ s⁻¹ | Ab hu21-21 (antibody, V domains shown) VH: EVQLVQSGAEVKKPGASVKVSCKASGYTFTNYWMHWVRQAPGQGLEWMGAIYPENGDINYNQKFKGRVTLTRDTSISTAYMELSRLRSDDTAVYYCTSRGDYWGQGTTVTVSS VL: AIQLTQSPSSLSASVGDRVTITCSASSGLSYMSWYQQKPGKAPKLLIYDTSNLASGVPSRFSGSGSGTDFTLTISSLQPEDFATYYCQQWSSYPYTFGQGTKLEIK | 
